# Reference: the supplement of paper PMC7125110
# ± gives the standard error. For some assays here: This sample holds only a part of the variants without activity.
# B1: glmS ribozyme (parent)
# chain: AUAAAAGCGCCAGAACUACAGAAAUGUAGUUGACGAGGAGGAGGUUUAUCGAAUUUUCGGCGGAUGCCUCCAAA
# What was measured:
# Conditions in all cases: with glucosamine-6-phosphate
# glucosamine-6-phosphate [1] = variants of: B1; assay: kcat; higher = faster cleavage; RNA array
# How it was run: (§1)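 Weighted Michaelis–Menten fits across concentrations supplied kcat and KM, based on kobs from one- or two-exponential decay fits to normalised per-tile medians. The data came from barcoded ribozyme variants transcribed in situ by E. coli RNA polymerase on sequenced MiSeq chips and tracked at 37 °C by a hybridised Cy3 probe. Glucosamine-6-phosphate (40 μM to 10 mM) in HEPES/KCl/Mg(OAc)2 buffer was flowed in.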
# glucosamine-6-phosphate [2] = variants of: B1; assay: KM; higher = weaker cofactor use; RNA array
# How it was run: as §1
# glucosamine-6-phosphate [3] = variants of: B1; assay: self-cleavage kobs at 40 uM GlcN6P; higher = faster cleavage; RNA array
# How it was run: as §1
# glucosamine-6-phosphate [4] = variants of: B1; assay: self-cleavage kobs at 160 uM GlcN6P; higher = faster cleavage; RNA array
# How it was run: as §1
# glucosamine-6-phosphate [5] = variants of: B1; assay: self-cleavage kobs at 640 uM GlcN6P; higher = faster cleavage; RNA array
# How it was run: as §1
# glucosamine-6-phosphate [6] = variants of: B1; assay: self-cleavage kobs at 2500 uM GlcN6P; higher = faster cleavage; RNA array
# How it was run: as §1
# glucosamine-6-phosphate [7] = variants of: B1; assay: self-cleavage kobs at 10000 uM GlcN6P; higher = faster cleavage; RNA array
# How it was run: as §1
Variant,kcat (glucosamine-6-phosphate [1]),KM (glucosamine-6-phosphate [2]),self-cleavage kobs at 40 uM GlcN6P (glucosamine-6-phosphate [3]),self-cleavage kobs at 160 uM GlcN6P (glucosamine-6-phosphate [4]),self-cleavage kobs at 640 uM GlcN6P (glucosamine-6-phosphate [5]),self-cleavage kobs at 2500 uM GlcN6P (glucosamine-6-phosphate [6]),self-cleavage kobs at 10000 uM GlcN6P (glucosamine-6-phosphate [7])
U65A,0.0061 ± 0.001 s⁻¹,2260 ± 500 µM,0.00012 ± 2.4e-06 s⁻¹,0.000336 ± 1.5e-05 s⁻¹,0.00117 ± 3.3e-05 s⁻¹,0.00375 ± 0.00015 s⁻¹,0.00502 ± 0.00012 s⁻¹
A48U U69G,5.22e-05 ± 2.1e-05 s⁻¹,–,–,–,–,7.45e-05 ± 1.7e-05 s⁻¹,–
A6U C70G,3.01e-05 ± 9.6e-06 s⁻¹,–,–,–,3.81e-05 ± 1.3e-05 s⁻¹,5.38e-05 ± 1.1e-05 s⁻¹,1.91e-05 ± 6.9e-06 s⁻¹
U31G G35U C67G,< 1e-05 s⁻¹,–,–,–,–,–,–
C11G A12G,< 1e-05 s⁻¹,16.2 ± 6.9 µM,< 1e-05 s⁻¹,< 1e-05 s⁻¹,–,–,< 1e-05 s⁻¹
U30C G62A,< 1e-05 s⁻¹,–,–,–,< 1e-05 s⁻¹,–,–
U31C U47A U56C,0.00113 ± 0.00024 s⁻¹,5360 ± 1700 µM,–,–,0.000111 ± 2.5e-05 s⁻¹,0.000487 ± 0.00011 s⁻¹,0.000707 ± 0.00012 s⁻¹
A36C C68G,7.04e-05 ± 2.3e-05 s⁻¹,–,3.7e-05 ± 1.3e-05 s⁻¹,–,0.000107 ± 1.7e-05 s⁻¹,4.55e-05 ± 1.3e-05 s⁻¹,8.61e-05 ± 3.4e-05 s⁻¹
U54C A64C,0.000257 ± 3.3e-05 s⁻¹,3560 ± 1000 µM,–,–,3.19e-05 ± 1e-05 s⁻¹,0.000124 ± 2e-05 s⁻¹,0.000185 ± 2.1e-05 s⁻¹
C50U C70U,4.57e-05 ± 5.9e-07 s⁻¹,154 ± 18 µM,–,–,3.85e-05 ± 1.4e-05 s⁻¹,4.25e-05 ± 8.3e-06 s⁻¹,4.51e-05 ± 7.2e-06 s⁻¹
A15U U31A,0.00127 ± 0.00026 s⁻¹,2230 ± 880 µM,3.45e-05 ± 7.5e-06 s⁻¹,4.67e-05 ± 2e-05 s⁻¹,0.000289 ± 5.3e-05 s⁻¹,0.000874 ± 0.00015 s⁻¹,0.00101 ± 9.8e-05 s⁻¹
U49G U65G,0.0002 ± 2.3e-05 s⁻¹,6050 ± 1500 µM,–,–,–,6.08e-05 ± 1.7e-05 s⁻¹,0.000124 ± 1.8e-05 s⁻¹
U49G U65A,2.22e-05 ± 4.5e-06 s⁻¹,–,–,< 1e-05 s⁻¹,–,–,–
G9A C67A,< 1e-05 s⁻¹,–,< 1e-05 s⁻¹,< 1e-05 s⁻¹,–,–,–
C11A U69C,6.61e-05 ± 1e-05 s⁻¹,–,–,–,7.71e-05 ± 3.5e-05 s⁻¹,7.67e-05 ± 1.5e-05 s⁻¹,4.97e-05 ± 1.6e-05 s⁻¹
A14G G37C,0.000101 ± 3.2e-05 s⁻¹,–,–,–,5.36e-05 ± 1.6e-05 s⁻¹,4.49e-05 ± 9e-06 s⁻¹,8.64e-05 ± 9.6e-06 s⁻¹
C50G U69G,0.000141 ± 7.4e-06 s⁻¹,–,0.000135 ± 1.6e-05 s⁻¹,0.000165 ± 3e-05 s⁻¹,0.000151 ± 2.4e-05 s⁻¹,0.000126 ± 2e-05 s⁻¹,0.000141 ± 1.5e-05 s⁻¹
G63C U69A,1.18e-05 ± 4.3e-06 s⁻¹,–,–,–,–,–,–
G29C G38A,< 1e-05 s⁻¹,–,< 1e-05 s⁻¹,–,–,–,< 1e-05 s⁻¹
A15U G40C,0.000282 ± 2.6e-05 s⁻¹,1070 ± 230 µM,–,3.7e-05 ± 1.5e-05 s⁻¹,0.00011 ± 1.4e-05 s⁻¹,0.000162 ± 3.3e-05 s⁻¹,0.000269 ± 3e-05 s⁻¹

Variant,kcat (glucosamine-6-phosphate [1]),KM (glucosamine-6-phosphate [2]),self-cleavage kobs at 40 uM GlcN6P (glucosamine-6-phosphate [3]),self-cleavage kobs at 160 uM GlcN6P (glucosamine-6-phosphate [4]),self-cleavage kobs at 640 uM GlcN6P (glucosamine-6-phosphate [5]),self-cleavage kobs at 2500 uM GlcN6P (glucosamine-6-phosphate [6]),self-cleavage kobs at 10000 uM GlcN6P (glucosamine-6-phosphate [7])
G13A U47G,0.000123 ± 1.6e-05 s⁻¹,1830 ± 670 µM,–,–,2.44e-05 ± 9.5e-06 s⁻¹,8.26e-05 ± 1.3e-05 s⁻¹,9.97e-05 ± 1.3e-05 s⁻¹
G29A U47C,0.000269 ± 1.9e-05 s⁻¹,1400 ± 310 µM,–,–,8.17e-05 ± 2.3e-05 s⁻¹,0.000223 ± 9.2e-05 s⁻¹,0.000233 ± 3.2e-05 s⁻¹
G29C U45C,0.000137 ± 2.1e-05 s⁻¹,2120 ± 930 µM,–,–,–,9.03e-05 ± 2e-05 s⁻¹,0.000108 ± 1.8e-05 s⁻¹
C11A U30A U45G,2.81e-05 ± 1.1e-06 s⁻¹,3690 ± 410 µM,–,–,–,–,–
A6U G41U,4.92e-05 ± 3.2e-06 s⁻¹,–,–,–,–,–,–
G13A U56A,0.000767 ± 0.0001 s⁻¹,3960 ± 750 µM,–,2.49e-05 ± 1e-05 s⁻¹,0.000106 ± 1.3e-05 s⁻¹,0.000312 ± 3.9e-05 s⁻¹,0.000519 ± 0.00011 s⁻¹
A15G G32C C67G,1.35e-05 ± 1.1e-06 s⁻¹,–,–,–,–,–,–
G51A C70U,1.48e-05 ± 3.4e-06 s⁻¹,–,–,–,–,–,–
G63A C70G,3.27e-05 ± 9.7e-06 s⁻¹,–,–,–,4.94e-05 ± 1.3e-05 s⁻¹,3.19e-05 ± 9.4e-06 s⁻¹,–
G41A A42C,4.51e-05 ± 1.7e-05 s⁻¹,–,–,–,–,6.51e-05 ± 1.8e-05 s⁻¹,3.53e-05 ± 1.3e-05 s⁻¹
G38C G66U,< 1e-05 s⁻¹,–,–,< 1e-05 s⁻¹,–,–,< 1e-05 s⁻¹
U47C G66U,2.83e-05 ± 1.3e-05 s⁻¹,–,< 1e-05 s⁻¹,–,–,–,–
C70A C71U,9.41e-05 ± 4.3e-06 s⁻¹,384 ± 58 µM,–,2.83e-05 ± 1e-05 s⁻¹,5.75e-05 ± 1e-05 s⁻¹,8.22e-05 ± 1e-05 s⁻¹,–
U69A C70G,1.72e-05 ± 8e-06 s⁻¹,–,–,–,–,–,–
A42C C70U,1.24e-05 ± 3.3e-06 s⁻¹,–,–,–,–,–,–
G32U A42C G51C C67U,1.49e-05 ± 6.1e-07 s⁻¹,3620 ± 380 µM,–,–,–,–,–
A15G G29U C50G,3.72e-05 ± 6.3e-06 s⁻¹,–,–,–,–,5.06e-05 ± 2.4e-05 s⁻¹,–
U30C C67G C68A,1.14e-05 ± 4e-06 s⁻¹,–,< 1e-05 s⁻¹,–,–,–,< 1e-05 s⁻¹
A15U G32A,0.00116 ± 0.00015 s⁻¹,4440 ± 850 µM,–,–,0.000153 ± 2.9e-05 s⁻¹,0.000388 ± 9.4e-05 s⁻¹,0.00082 ± 0.00016 s⁻¹
U45G C71A,0.000924 ± 0.00018 s⁻¹,1750 ± 590 µM,3.27e-05 ± 1.3e-05 s⁻¹,8.6e-05 ± 1.7e-05 s⁻¹,0.000204 ± 3.8e-05 s⁻¹,0.000778 ± 0.00016 s⁻¹,0.000766 ± 0.0001 s⁻¹
